We go through 3 molecules from US6716597 (MIT, dated 2004).

The labels stand for the following.
T1: vinculin (endogenous, in Rat2 fibroblasts) (rat (Rat2 fibroblasts), UniProt P85972 1-1066)
T1 construct: whole, on cells
T1 sequence: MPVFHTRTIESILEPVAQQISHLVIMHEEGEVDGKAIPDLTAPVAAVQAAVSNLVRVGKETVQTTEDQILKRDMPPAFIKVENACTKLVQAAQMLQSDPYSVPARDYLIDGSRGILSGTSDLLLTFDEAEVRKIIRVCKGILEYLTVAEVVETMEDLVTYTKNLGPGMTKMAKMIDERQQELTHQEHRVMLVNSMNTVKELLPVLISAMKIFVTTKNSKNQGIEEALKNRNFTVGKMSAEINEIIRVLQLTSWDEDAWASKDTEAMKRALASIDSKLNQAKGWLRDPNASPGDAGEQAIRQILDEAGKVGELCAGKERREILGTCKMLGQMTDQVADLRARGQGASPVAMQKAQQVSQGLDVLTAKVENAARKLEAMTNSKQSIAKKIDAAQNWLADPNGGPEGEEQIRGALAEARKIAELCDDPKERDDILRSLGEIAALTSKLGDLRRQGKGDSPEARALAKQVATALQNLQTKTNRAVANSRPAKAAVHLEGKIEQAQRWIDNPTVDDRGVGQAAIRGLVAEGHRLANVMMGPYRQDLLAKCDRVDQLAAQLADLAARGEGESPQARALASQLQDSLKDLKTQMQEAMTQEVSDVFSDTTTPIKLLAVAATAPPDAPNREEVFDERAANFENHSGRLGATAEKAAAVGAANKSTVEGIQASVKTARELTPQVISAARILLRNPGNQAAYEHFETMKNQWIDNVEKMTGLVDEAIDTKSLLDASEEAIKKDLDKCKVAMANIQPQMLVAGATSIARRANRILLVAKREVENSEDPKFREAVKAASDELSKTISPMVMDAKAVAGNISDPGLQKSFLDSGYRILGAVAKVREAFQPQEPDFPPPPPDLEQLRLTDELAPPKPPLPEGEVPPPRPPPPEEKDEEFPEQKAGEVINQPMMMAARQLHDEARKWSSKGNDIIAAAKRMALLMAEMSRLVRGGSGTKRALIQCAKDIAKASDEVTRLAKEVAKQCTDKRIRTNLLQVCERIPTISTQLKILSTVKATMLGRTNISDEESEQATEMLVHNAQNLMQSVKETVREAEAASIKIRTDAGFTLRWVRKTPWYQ

B1: FPPPP-mito (EGFP fused to ActA amino acids 231-610, four EVH1-binding FPPPP repeats and the mitochon (other)
chain: VNASDFPPPPTDEELRLALPETPMLLGFNAPATSEPSSFEFPPPPTDEELRLALPETPMLLGFNAPATSEPSSFEFPPPPTEDELEIIRETASSLDSSFTRGDLASLRNAINRHSQNFSDFPPIPTEEELNGRGGRPTSEEFSSLNSGDFTDDENSETTEEEIDRLADLRDRGTGKHSRNAGFLPLNPFASSPVPSLSPKVSKISAPALISDITKKTPFKNPSQPLNVFNKKTTTKTVTKKPTPVKTAPKLAELPATKPQETVLRENKTPFIEKQAETNKQSINMPSLPVIQKEATESDKEEMKPQTEEKMVEESESANNANGKNRSAGIEEGKLIAKSAEDEKAKEEPGNHTTLILAMLAIGVFSLGAFIKIIQLRKNN
notes: not shown: EGFP (enhanced green fluorescent protein, Clontech); the ActA portion is fused to its C-term
B2: VASP (endogenous, in Rat2 fibroblasts) (other)
chain: ETVICSSRATVMLYDDSNKRWLPAGTGPQAFSRVQIYHNPTANSFRVVGRKLQPDQQVVINCAIIRGVKYNQATPIFHQWRDARQVWGLNFGSKEDAAQFAIGMANALEALEGGGPPPAPAPPAWSTQNGPSPEELEQQKRQPEHLERRVSNAGGPPAPPAGGPPPPPGPPPPPGPPPPPGLPPSGVSGAGHGTGVAPPPAPPLPTAQGPSSGGSGAPGLAAAIAGAKLRKVSKEEASGGPLAPKAENSRGTGGGLMEEMNAMLARRRKATQVGEKPPKDESASQEESEARIPAQSEPVRRPWEKNSTTLPRMKSSSSVTTSEAHPSVPSSSDDSDLERVKQELVEEVRKELQKMKEEIIEVFVQELRKRGSP
notes: whole, on cells; also called vasodilator-stimulated phosphoprotein
B3: FPPPP-cyto (EGFP fused to ActA amino acids 231-360, without the mitochondrial targeting sequence) (other)
chain: VNASDFPPPPTDEELRLALPETPMLLGFNAPATSEPSSFEFPPPPTDEELRLALPETPMLLGFNAPATSEPSSFEFPPPPTEDELEIIRETASSLDSSFTRGDLASLRNAINRHSQNFSDFPPIPTEEEL
notes: not shown: EGFP (enhanced green fluorescent protein, Clontech)

For test [1], the target named is T1, vinculin (endogenous, in Rat2 …). Description: immunofluorescence in FPPPP-mito Rat2 cells.
For test [2], the target named is T2, p34 component of the Arp2/3 complex (endogenous, in Rat2 fibroblasts) (rat (Rat2 fibroblasts), UniProt P85970 1-300).
T2 construct: whole, on cells
Description: immunofluorescence in FPPPP-mito Rat2 cells.

Test [3] addresses B1. Description: immunofluorescence co-localisation in Rat2 cells expressing the construct.
Test [4] deals with B2. Description: immunofluorescence in Rat2 cells expressing the construct.

On to B1, for which the binding result in test [1] and in test [2] was “no binding” each time.
Consider B2, for which the binding result in test [3] is “binds”.
On to B3, for which the binding result in test [4] is “binds”.
